According to publication PMC9294000, “Structural basis for the simultaneous recognition of NEMO and acceptor ubiquitin by the HOIP NZF1 domain” (Scientific Reports, 2022):

T1: human HOIP NZF1 (hHOIP NZF1, aa. 350–379) (human, UniProt Q96EP0 350-379)
T1 construct: HOIP, human, NZF1 domain, residues 350-379; Cloned into pGEX-6p-1; also called Npl4 zinc finger 1 domain of HOIP; source: E. coli BL21 (DE3), purified (Glutathione Sepharose 4B, on-column PreScission cleavage, Superdex 75); not shown: GST, N-terminal, cleaved
T1 chain (looked up): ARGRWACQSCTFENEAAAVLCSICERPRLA

B1: human NEMO (hNEMO, aa. 257–346) (domain or fragment, UniProt Q9Y6K9 257-346, looked up)
chain: GMQLEDLKQQLQQAEEALVAKQEVIDKLKEEAEQHKIVMETVPVLKAQADIYKADFQAERQAREKLAEKKELLQEQLEQLQREYSKLKAS
notes: NEMO (IKKγ), human, residues 257-346 (CoZi region with the UBAN domain); Coiled-coil homodimer in the crystal; Cloned into pGEX-6p-1; also called NEMO CoZi; NEMO coiled-coil 2/zinc finger (CoZi); source: E. coli BL21 (DE3), purified (Glutathione Sepharose 4B, on-column PreScission cleavage, Superdex 75); not shown: GST, N-terminal, cleaved
B2: GST-HOIP NZF1(a.a. 350–379) (domain or fragment, human, UniProt Q96EP0 350-379, looked up)
chain: ARGRWACQSCTFENEAAAVLCSICERPRLA
notes: HOIP, human, NZF1 domain, residues 350-379; Held on the SPR chip by anti-GST antibodies; how the uncleaved fusion was purified is not described; source: E. coli BL21 (DE3), expressed as GST-fusion protein; not shown: GST, N-terminal, kept

Assays:
[1] = biological target: the molecule itself; experiment: crystal structure; hHOIP NZF1, hNEMO and linear di-ubiquitin purified separately, mixed in an equimolar ratio; sitting drops, 0.1 M Tris-HCl pH 8.5, 22% v/v PEG Smear Broad; 4.2 Å; heteropentameric complex
[2] = biological target: T1, human HOIP NZF1 (hHOIP NZF1, aa. …); experiment: as above; settings: both partners purified
[3] = biological target: T2, linear diubiquitin (UniProt P0CG48 1-76; P0CG48 1-76); experiment: as above; settings: both partners purified
T2 construct: ubiquitin, the N-terminal (distal) unit of the head-to-tail chain; its C-terminal Gly is joined to Met1 of the next ubiquitin; ubiquitin, the C-terminal (proximal) unit of the head-to-tail chain, residues 1-76 (Leu73-Gly76 not visible in the map); Two ubiquitins on one chain, expressed from pGEX-4T-1; also called linear diubiquitin chain; source: E. coli, purified (Glutathione Sepharose 4B, …)

[4] = biological target: T3, mono-ubiquitin (UniProt P0CG48 1-76); experiment: SPR; Biacore S200; GST-HOIP NZF1 held on anti-GST antibodies amine-coupled to a CM5 chip, GST as control; analytes in 10 mM HEPES pH 7.4, 150 mM NaCl, 0.005% P20; mono-ubiquitin 288.0-1.1 µM, mNEMO 100.0-0.4 µM; equilibrium KD; duplicate; settings: both partners purified
T3 construct: ubiquitin (mono-ubiquitin); The methods describe neither a plasmid nor a supplier for the mono-ubiquitin

[5] = biological target: T4, mouse NEMO (mNEMO, a.a. 250–339, corresponding to hNEMO 257–346) (mouse, UniProt O88522 250-339); experiment: as above; settings: both partners purified
T4 construct: NEMO (IKKγ), mouse, residues 250-339; Cloned into pET-28a downstream of the 6xHis tag; source: E. coli BL21 (DE3), purified (Talon beads, on-column thrombin cleavage, size-exclusion chromatography); not shown: His6, N-terminal, cleaved
T4 sequence (O88522 250-339): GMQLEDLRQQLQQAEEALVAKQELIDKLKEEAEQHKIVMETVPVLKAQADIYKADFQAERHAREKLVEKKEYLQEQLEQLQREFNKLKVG

Binder	stoichiometry N [1]	stoichiometry N [2]	binding result [3]	Kd [4]	Kd [5]
B1	2	2 NEMO chains per NZF1	binds	–	–
B2	–	–	–	135 µM	86.7 µM
